According to the supplement of paper PMC9170038:

Tested on: MS2 coat protein
Assay: apparent KD of MS2 coat protein; higher = weaker reporter binding
Conditions: Eterna round: R107
Summary of the method: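 In 100 mM Tris-HCl pH 7.5 with 80 mM KCl and 4 mM MgCl2, and without or with constant ligand, SNAP-549-labelled MS2 coat protein was titrated in twofold steps from 0.7 or 1.5 nM to 3 µM. Per-step times went from 0.8–1.5 h down to 10–20 min. The RNA switches were transcribed on-chip from Illumina sequencing clusters, and apparent KD is the per-design median of normalised cluster binding-curve fits.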

[1] = input ligand: theophylline 20 uM
[2] = input ligand: tryptophan 2.4 mM
[3] = input ligand: theophylline 2 mM

| Sequence | apparent KD of MS2 coat protein (input ligand: arginine 13.2 mM) | apparent KD of MS2 coat protein [1] | apparent KD of MS2 coat protein [2] | apparent KD of MS2 coat protein (input ligand: none) | apparent KD of MS2 coat protein [3] |
| --- | --- | --- | --- | --- | --- |
| AGAACCCAAGAGGAUACCAGAACGACAAUCAAAUCUUUUUACAUGAGGAUCACCCAUGUUUUCCCUUGGCAGCCUCAUGCACGAC [theeternabot_exclusion_MS2_Theo_B_43] | 47.1 nM | 108 nM | 59.6 nM | – | – |
| CUUGUUUAUGGAAGGAGCGCGAUUACAUAACAUGAGGAUCACCCAUGUAAGAAAUUAUUCAUGCAGGUAGGUCGCCAUGGGUGGG [Same State Arginine B GF7] | 111 nM | 105 nM | 120 nM | 195 nM | 258 nM |
| CUAUGCAGGUCGGCCGCCACUACACACAUGAGGAUCACCCAUGUAGUUACUGGGUGAAGUGGCAGUAGGACCGGGACCUGCACAU [Brourdmod15] | 190 nM | 578 nM | 229 nM | 480 nM | 659 nM |
| UAAUGCAGGUCGGCCGCCACUACACACAUGAGGAUCACCCAUGUAGUUACUGGGUGAAGUGGCAGUAGGACCGGGACCUGCAUAC [Brourdmod04] | 165 nM | 578 nM | – | – | 833 nM |
| GCUGCAGCUACGGCCGCCACUGUUACGUGAGACAUGAGGAUCACCCAUGUUGAUGUUUUACGGUAUAGGACCGGGUAGUUGUAGU [E 1.0] | 9.08 nM | 11.8 nM | – | – | 10.3 nM |
| AUUAAUAGUUGUGAUACCAGACGAACAUGAGGAUCACCCAUGUAACUUUUAGGUGUUGUAGUCCCUUGGCAGCACUAUUUAGUUA [JR_SSTheophyB_Sub014] | 29.3 nM | 48.4 nM | 33.6 nM | – | – |
| CGUGGUUGAGAUGGGCCUCUGAUAAGUCUGCGAGGACCGGUACGGCCGCCACUCGAGGACAUGAGGAUCACCCAUGUACUUCGCG [Vequar] | 41.1 nM | 139 nM | 19.2 nM | 30.8 nM | 50.5 nM |
| CACGGAAGAGUGGAUCACCCUCUUAAUAAACGAGGACCGGUACGGCCGCCACUCGAAAACCGUGACCUGUACGAAAAGUGCAGGA | 31.3 nM | 202 nM | 127 nM | 39.4 nM | 437 nM |
| GGUUACUCUACGGCCGCCACUGUAAUGUAAAGAUACCUGUACAUGACAUGAGGAUCACCCAUGUGCAGGACCGGGUAGUGUAACC [Tryptophan B 19] | 50.6 nM | 93.6 nM | 19.8 nM | 61.6 nM | 70 nM |
| AACAUGAGGAUCACCCAUGUUUGCUAUGAAGGAGCGUCGGAAAUGACAGGUAGGUCGCAUGGUAGACCGAGUAUUAUCUGUAUGG [EAA NP+V+V2 #11] | 14.9 nM | 19.5 nM | 12.1 nM | 9.74 nM | 10.7 nM |
| AGGACCAGGAACAUGGGUGAACUGGUCCAACGAGGACCGGUACGGCCGCCACUCGAAUAAACAUGAGGAUCACCCAUGUAAUAAU [T''-M-T'-T-MS2] | 83.3 nM | 296 nM | 210 nM | 327 nM | 442 nM |
| AUGGACGGCGAUCUGGGUUUACCAGAUCGGCGAGGACCGGUACGGCCGCCACUCGUGUUUAUUUAACAUGAGGAUCACCCAUGUA [SSTA #2] | 62.4 nM | 163 nM | 21.3 nM | 97.6 nM | 139 nM |
| GGGCCCGGGCGCGAGCCCGGGCCCAUUGAUACCAGUGAAAAUAUACGCCCUUGGCAGCGAAUCCUAACAUGAGGAUCACCCAUGU [5.A] | 37.7 nM | 65.7 nM | 33.4 nM | 37.2 nM | 70.9 nM |
| GGGCGCUAUCCCGCGAGGGAUAGCGUUCGACGAGGACCGGUACGGCCGCCACUCGAACGAGUGGUGACAUGAGGAUCACCCAUGU [Naa] | 28.7 nM | 56.7 nM | 49.7 nM | 53 nM | 59.4 nM |
| UGGCGAGAAGGAAGGAGCGUCAGCUGAGUCACAUGAGGAUCACCCAUGUAGGACAUGGUGUGACAGGUAGGUCGCCUUCUGCCCU [SS-ArgB18] | 16.9 nM | 25.7 nM | 13 nM | 14.6 nM | 22.5 nM |
| AUUAUCAUGGUCAUAUAUAUUUCGUCAGAUACCAGACUAGAUAUAGUCCCUUGGCAGCUGUUACAUGAGGAUCACCCAUGUUAUU [JR_ExcTheophyA_Sub017] | 32.2 nM | 80.3 nM | 96.3 nM | – | – |
| AAACUAACGAGAGGAAACCUCGAGGGUGAUACCAGCACAUAAGGGUGCCCUUGGCAGCACCGACGUACAUGAGGAUCACCCAUGU [Gexegees] | 56.6 nM | 154 nM | 169 nM | – | – |
| UAUGCACAUGAGGAUCACCCAUGUAUGGAAGGAGCGGUGAAUAAACCAGGUAGGUCGCCAUGGUGAGGAUCAUCUAUGUAAUCGU [Exclusion - Arginine A (Freestyle 6)] | 62.3 nM | 125 nM | 87.8 nM | 93.2 nM | 103 nM |
| AGCACUGUGACGGCCGCCACUACAUAAAUAGGGUGGUCAGGUUCAUUACAUGAGGAUCACCCAUGUAGGACCGGGUCUCAGUGCA [Omei Trp Exc B A v7] | 10 nM | 11.9 nM | – | – | 11 nM |
| GCACCAGGUACGGAUACCAGCUGCCACAGUUACAUGAGGAUCACCCAUGUGAAAACGUGUAGCCCUUGGCAGCUGUACCUGGUGC [SSThB NP+V+V2 #8 Same Structure] | 198 nM | 186 nM | 398 nM | 459 nM | 14.6 nM |
| CUCCCGUGAGCGGCCGCCACUGGAGGCCUCGCGCGACAUGAGGAUCACCCAUGUUGGCCCGGCCUCAGGACCGGGUUCGCGUGAG [Same State - Tryptophan B Attempt #6 (HarryS)] | 7.47 nM | 17.4 nM | 8.4 nM | 9.18 nM | 12.7 nM |
| GCAUCCUAGUCGGCCGCCACUGCAACAUGAGGAUCACCCAUGUCUGCAUCUUCAUGAUGCAGUAGCAGGACCGGGACUAGGAUGC [(T1)-(M1)-(M2)-(T)''-(M)'-(T)'-(T2)_Design1_2/18/17] | 69.4 nM | 153 nM | – | – | 242 nM |
| ACGAUAGGACCUGAGGAUCACCCUGGUGAUACCAGCCUGGAAACAGGCCCUUGGCAGCACAAAUACUCCAAUAACCUAUCGAAUA [TheoAX 13 #MicroSwitchBubble #AlternativeMS2] | 245 nM | 698 nM | 1070 nM | 611 nM | 1100 nM |
| UGAGUUAGACAAAAGUCUAGCUCUGGUGAAGGAGCGUCCGAAAGGACAGGUAGGUCGCACCACCUGAGGAUCACCCGGGUUCCUA [ArgAS 13 #OpenEnded #AlternativeMS2] | 360 nM | 544 nM | 115 nM | 167 nM | 991 nM |
| CAGCAACAAUUGGAUACCAGCCAUUACAGGUAUCAUUAUAACAUGAGGAUCACCCAUGUAGGCCCUUGGCAGCCAUUGGUGUAAG [theeternabot_exclusion_MS2_Theo_B_22] | 27.5 nM | 69 nM | 40.5 nM | – | – |
| CUACAUGUAGUUAAACCGGUCAACAAUAAUCGAGGACCGGUACGGCCGCCACUCGAUGUGUUAUACACAUGAGGAUCACCCAUGU [Tryptophan A 15] | 23.3 nM | 27.2 nM | – | – | 27.8 nM |
| UCGUUUGAGGCGGCCGCCACUGGUCUCAUGGUCAACAUGAGGAUCACCCAUGUAUCUUUGCUAAGCAGGACCGGGCCUCGAGCGA [#19 Exclusion Tryptophan B] | 43.5 nM | 87.4 nM | – | – | 87.5 nM |
| UUAUAUUAUCGAAGGAGCGUCACAUGAGGAUCACCCAUGUACAUGAGGAUCACCCAUGUGUGGCAGGUAGGUCGCGAUAUAUAAC [Exclusion Arginine B GF9] | 120 nM | 250 nM | 327 nM | – | 301 nM |
